The values that follow come from article PMC9439264.

The target in this experiment is HA trimer of A/Beijing/262/1995 (H1N1), thrombin- and trypsin-treated, for the immune complex (Influenza A virus A/Beijing/262/1995 (H1N1)). The experiment is described as follows: cryo-EM structure; 12H5 Fab with thrombin- and trypsin-treated BJ/1995 HA trimer.

For the substance “HA trimer of A/Beijing/262/1995 (H1N1), thrombin- and trypsin-treated, for the immune complex”, the stoichiometry N was 3.

Broadly, the stoichiometry N is a count of units in the complex or per binding partner.
